From article PMC12268258
Like-named read-outs stand apart in the source and are kept apart here.

Columns and labels:
Experiment in all cases: BLI
HB125scFv-2 N54H [1] = target: HB125scFv-2 N54H
HB125scFv-2 Y242H [2] = target: HB125scFv-2 Y242H
HB125scFv-2 E56H [3] = target: HB125scFv-2 E56H
HB125scFv-2 D33H/E56H [4] = target: HB125scFv-2 D33H/E56H
HB125scFv-2 T32H [5] = target: HB125scFv-2 T32H
HB125scFv-2 D33H [6] = target: HB125scFv-2 D33H
HB125scFv-2 N54H [7] = target: HB125scFv-2 N54H; remark: listed apart in the source
HB125scFv-2 Y242H [8] = target: HB125scFv-2 Y242H; remark: listed apart in the source
HB125scFv-2 E56H [9] = target: HB125scFv-2 E56H; remark: listed apart in the source
HB125scFv-2 D33H/E56H [10] = target: HB125scFv-2 D33H/E56H; remark: listed apart in the source
HB125scFv-2 T32H [11] = target: HB125scFv-2 T32H; remark: listed apart in the source
HB125scFv-2 D33H [12] = target: HB125scFv-2 D33H; remark: listed apart in the source
HB125scFv-2 T32H [13] = target: HB125scFv-2 T32H; remark: listed apart in the source

**Q.** Which results are given for “human insulin (from UniProt P01308 90-110; P01308 25-54) (natural protein)”?
**A.** Kd (HB125scFv-2 N54H [1]): 206 nM; koff (HB125scFv-2 N54H [1]): 0.00286 s⁻¹; kon (HB125scFv-2 N54H [1]): 15700 M⁻¹ s⁻¹; Kd (HB125scFv-2 Y242H [2]): 1480 nM; koff (HB125scFv-2 Y242H [2]): 0.012 s⁻¹; kon (HB125scFv-2 Y242H [2]): 8040 M⁻¹ s⁻¹; Kd (HB125scFv-2 E56H [3]): 548 nM; koff (HB125scFv-2 E56H [3]): 0.00577 s⁻¹; kon (HB125scFv-2 E56H [3]): 12700 M⁻¹ s⁻¹; Kd (HB125scFv-2 D33H/E56H [4]): 426 nM; koff (HB125scFv-2 D33H/E56H [4]): 0.0073 s⁻¹; kon (HB125scFv-2 D33H/E56H [4]): 19100 M⁻¹ s⁻¹; Kd (HB125scFv-2 T32H [5]): 146 nM; koff (HB125scFv-2 T32H [5]): 0.00351 s⁻¹; kon (HB125scFv-2 T32H [5]): 42900 M⁻¹ s⁻¹; percent change of wavelength shift, association 0.5 μM → 1 μM (HB125scFv-2 T32H [5]): 57%; percent change of wavelength shift, association 1 μM → 0.5 μM (HB125scFv-2 T32H [5]): 23%; percent change of wavelength shift, association 1 μM → 2 μM (HB125scFv-2 T32H [5]): 49%; percent change of wavelength shift, association 2 μM → 1 μM (HB125scFv-2 T32H [5]): 21%; percent change of wavelength shift, average association (HB125scFv-2 T32H [5]): 37%; percent change of wavelength shift, average dissociation (HB125scFv-2 T32H [5]): -21%; percent change of wavelength shift, dissociation 0.5 μM → 0 μM (first) (HB125scFv-2 T32H [5]): -22%; percent change of wavelength shift, dissociation 0.5 μM → 0 μM (second) (HB125scFv-2 T32H [5]): -17%; percent change of wavelength shift, dissociation 1 μM → 0 μM (first) (HB125scFv-2 T32H [5]): -23%; percent change of wavelength shift, dissociation 1 μM → 0 μM (second) (HB125scFv-2 T32H [5]): -22%; percent change of wavelength shift, dissociation 2 μM → 0 μM (HB125scFv-2 T32H [5]): -20%; Kd (HB125scFv-2 D33H [6]): 51.7 nM; koff (HB125scFv-2 D33H [6]): 0.00154 s⁻¹; kon (HB125scFv-2 D33H [6]): 27800 M⁻¹ s⁻¹; Kd (HB125scFv-2 N54H [7]): 165 nM; koff (HB125scFv-2 N54H [7]): 0.00341 s⁻¹; kon (HB125scFv-2 N54H [7]): 26000 M⁻¹ s⁻¹; Kd (HB125scFv-2 Y242H [8]): 478 nM; koff (HB125scFv-2 Y242H [8]): 0.00854 s⁻¹; kon (HB125scFv-2 Y242H [8]): 18800 M⁻¹ s⁻¹; Kd (HB125scFv-2 E56H [9]): 160 nM; koff (HB125scFv-2 E56H [9]): 0.0058 s⁻¹; kon (HB125scFv-2 E56H [9]): 43400 M⁻¹ s⁻¹; Kd (HB125scFv-2 D33H/E56H [10]): 250 nM; koff (HB125scFv-2 D33H/E56H [10]): 0.00557 s⁻¹; kon (HB125scFv-2 D33H/E56H [10]): 23700 M⁻¹ s⁻¹; Kd (HB125scFv-2 T32H [11]): 17.4 nM; koff (HB125scFv-2 T32H [11]): 0.00166 s⁻¹; kon (HB125scFv-2 T32H [11]): 89700 M⁻¹ s⁻¹; Kd (HB125scFv-2 D33H [12]): 36 nM; koff (HB125scFv-2 D33H [12]): 0.00176 s⁻¹; kon (HB125scFv-2 D33H [12]): 60500 M⁻¹ s⁻¹; percent change of wavelength shift, association 0.5 μM → 1 μM (HB125scFv-2 T32H [13]): 31%; percent change of wavelength shift, association 1 μM → 0.5 μM (HB125scFv-2 T32H [13]): 15%; percent change of wavelength shift, association 1 μM → 2 μM (HB125scFv-2 T32H [13]): 39%; percent change of wavelength shift, association 2 μM → 1 μM (HB125scFv-2 T32H [13]): 20%; percent change of wavelength shift, average association (HB125scFv-2 T32H [13]): 26%; percent change of wavelength shift, average dissociation (HB125scFv-2 T32H [13]): -17%; percent change of wavelength shift, dissociation 0.5 μM → 0 μM (first) (HB125scFv-2 T32H [13]): -18%; percent change of wavelength shift, dissociation 0.5 μM → 0 μM (second) (HB125scFv-2 T32H [13]): -11%; percent change of wavelength shift, dissociation 1 μM → 0 μM (first) (HB125scFv-2 T32H [13]): -15%; percent change of wavelength shift, dissociation 1 μM → 0 μM (second) (HB125scFv-2 T32H [13]): -18%; percent change of wavelength shift, dissociation 2 μM → 0 μM (HB125scFv-2 T32H [13]): -21%
